Values belong to the binder of their own block, whether it stands above or below them.
Legend:
Antigen 1 [1] = assay: ELISA, supernatant 1 TO 64, Plate 1 (Antigen 1), column 6, BLANK 0.07
Antigen 2 [2] = assay: ELISA, supernatant 1 TO 4096, Plate 2 (Antigen 2), column 6, BLANK 0.06
Antigen 1 [3] = assay: ELISA, supernatant 1 TO 16, Plate 1 (Antigen 1), column 6, BLANK 0.07
Antigen 2 [4] = assay: ELISA, supernatant 1 TO 4, Plate 2 (Antigen 2), column 6, BLANK 0.06
Antigen 2 [5] = assay: ELISA, supernatant 1 TO 1024, Plate 2 (Antigen 2), column 6, BLANK 0.06
Antigen 2 [6] = assay: ELISA, supernatant 1 TO 256, Plate 2 (Antigen 2), column 6, BLANK 0.06
Antigen 1 [7] = assay: ELISA, supernatant 1 TO 256, Plate 1 (Antigen 1), column 6, BLANK 0.07
Antigen 1 [8] = assay: ELISA, supernatant 1 TO 4096, Plate 1 (Antigen 1), column 6, BLANK 0.07
Antigen 2 [9] = assay: ELISA, supernatant UNDILUTED, Plate 2 (Antigen 2), column 6, BLANK 0.06
Antigen 2 [10] = assay: ELISA, supernatant 1 TO 16, Plate 2 (Antigen 2), column 6, BLANK 0.06
Antigen 1 [11] = assay: ELISA, supernatant UNDILUTED, Plate 1 (Antigen 1), column 6, BLANK 0.07
Antigen 2 [12] = assay: ELISA, supernatant 1 TO 64, Plate 2 (Antigen 2), column 6, BLANK 0.06
Antigen 1 [13] = assay: ELISA, supernatant 1 TO 1024, Plate 1 (Antigen 1), column 6, BLANK 0.07
Antigen 1 [14] = assay: ELISA, supernatant 1 TO 4, Plate 1 (Antigen 1), column 6, BLANK 0.07
Antigen 2 [15] = assay: ELISA, supernatant 1 TO 4, Plate 2 (Antigen 2), column 8, BLANK 0.07
Antigen 2 [16] = assay: ELISA, supernatant 1 TO 4096, Plate 2 (Antigen 2), column 8, BLANK 0.07
Antigen 1 [17] = assay: ELISA, supernatant 1 TO 256, Plate 1 (Antigen 1), column 8, BLANK 0.07
Antigen 1 [18] = assay: ELISA, supernatant 1 TO 4096, Plate 1 (Antigen 1), column 8, BLANK 0.07
Antigen 1 [19] = assay: ELISA, supernatant 1 TO 4, Plate 1 (Antigen 1), column 8, BLANK 0.07
Antigen 1 [20] = assay: ELISA, supernatant UNDILUTED, Plate 1 (Antigen 1), column 8, BLANK 0.07
Antigen 2 [21] = assay: ELISA, supernatant 1 TO 256, Plate 2 (Antigen 2), column 8, BLANK 0.07
Antigen 1 [22] = assay: ELISA, supernatant 1 TO 16, Plate 1 (Antigen 1), column 8, BLANK 0.07
Antigen 2 [23] = assay: ELISA, supernatant 1 TO 16, Plate 2 (Antigen 2), column 8, BLANK 0.07
Antigen 1 [24] = assay: ELISA, supernatant 1 TO 1024, Plate 1 (Antigen 1), column 8, BLANK 0.07
Antigen 1 [25] = assay: ELISA, supernatant 1 TO 64, Plate 1 (Antigen 1), column 8, BLANK 0.07
Antigen 2 [26] = assay: ELISA, supernatant 1 TO 64, Plate 2 (Antigen 2), column 8, BLANK 0.07
Antigen 2 [27] = assay: ELISA, supernatant UNDILUTED, Plate 2 (Antigen 2), column 8, BLANK 0.07
Antigen 2 [28] = assay: ELISA, supernatant 1 TO 1024, Plate 2 (Antigen 2), column 8, BLANK 0.07
Antigen 1 [29] = assay: ELISA, supernatant 1 TO 4096, Plate 1 (Antigen 1), column 10, BLANK 0.07
Antigen 2 [30] = assay: ELISA, supernatant 1 TO 4096, Plate 2 (Antigen 2), column 10, BLANK 0.07
Antigen 2 [31] = assay: ELISA, supernatant 1 TO 4, Plate 2 (Antigen 2), column 10, BLANK 0.07
Antigen 1 [32] = assay: ELISA, supernatant 1 TO 4, Plate 1 (Antigen 1), column 10, BLANK 0.07
Antigen 1 [33] = assay: ELISA, supernatant 1 TO 16, Plate 1 (Antigen 1), column 10, BLANK 0.07
Antigen 1 [34] = assay: ELISA, supernatant UNDILUTED, Plate 1 (Antigen 1), column 10, BLANK 0.07
Antigen 1 [35] = assay: ELISA, supernatant 1 TO 1024, Plate 1 (Antigen 1), column 10, BLANK 0.07
Antigen 1 [36] = assay: ELISA, supernatant 1 TO 256, Plate 1 (Antigen 1), column 10, BLANK 0.07
Antigen 2 [37] = assay: ELISA, supernatant 1 TO 64, Plate 2 (Antigen 2), column 10, BLANK 0.07
Antigen 2 [38] = assay: ELISA, supernatant 1 TO 16, Plate 2 (Antigen 2), column 10, BLANK 0.07
Antigen 1 [39] = assay: ELISA, supernatant 1 TO 64, Plate 1 (Antigen 1), column 10, BLANK 0.07
Antigen 2 [40] = assay: ELISA, supernatant 1 TO 1024, Plate 2 (Antigen 2), column 10, BLANK 0.07
Antigen 2 [41] = assay: ELISA, supernatant UNDILUTED, Plate 2 (Antigen 2), column 10, BLANK 0.07
Antigen 2 [42] = assay: ELISA, supernatant 1 TO 256, Plate 2 (Antigen 2), column 10, BLANK 0.07

ELISA plate reading (Antigen 1 [1]): 0.09
ELISA plate reading (Antigen 2 [2]): 0.06
ELISA plate reading (Antigen 1 [3]): 0.07
ELISA plate reading (Antigen 2 [4]): 1.4
ELISA plate reading (Antigen 2 [5]): 0.08
ELISA plate reading (Antigen 2 [6]): 0.11
ELISA plate reading (Antigen 1 [7]): 0.06
ELISA plate reading (Antigen 1 [8]): 0.06
ELISA plate reading (Antigen 2 [9]): 2.04
ELISA plate reading (Antigen 2 [10]): 0.67
ELISA plate reading (Antigen 1 [11]): 0.22
ELISA plate reading (Antigen 2 [12]): 0.26
ELISA plate reading (Antigen 1 [13]): 0.06
ELISA plate reading (Antigen 1 [14]): 0.11
B1: Heavy Chain Construct 3 with Light Chain Construct 2 (VH1-VH2/VL2) (antibody)
heavy: QSVEESGGRLVTPGTPLTLTCTVSGFSLNTNAIRWVRQAPGKGLEWIGAIDASGNTYYASWAKGRFTISKTSTTVDLKITSPTTEDTATYFCNRFNTANIWGPGTLVTVSSGQPKAPSVFPLAPCCGDTPSSTVTLGCLVKGYLPEPVTVTWNSGTLTNGVRTFPSVRQSSGLYSLSSVVSVTSSSQPVTCNVAHPATNTKVDKTVAPSTCSKPMCPPPELLGGRPQPQPQPQPQPQPQPQPQPQPQPQPQPQPQPQSRQSLEESGGRLVSPGTPLTLTCTASGFSLSSNAMGWVRQAPGEGLEYIGIIRPGGSTYYASWAKGRFTISKTSSTTVDLKMTSLTTEDTATYFCARAWDIWGPGTLVTVSLGQPKAPSVFPLAPCCGDTPSSTVTLGCLVKGYLPEPVTVTWNSGTLTNGVRTFPSVRQSSGLYSLSSVVSVTSSSQPVTCNVAHPATNTKVDKTVAPSTCSKPTCPPPELLGGPSVFIFPPKPKDTLMISRTPEVTCVVVDVSQDDPEVQFTWYINNEQVRTARPPLREQQFNSTIRVVSTLPIAHQDWLRGKEFKCKVHNKALPAPIEKTISKARGQPLEPKVYTMGPPREELSSRSVSLACMINGFYPSDISVEWEKNGKAEDNYKTTPAVLDSDGSYFLYSKLSVPTSEWQRGDVFTCSVMHEALHNHYTQKSISRSPGK
light: AFELTQTPSSVEAAVGGTVTIRCQASQSISNQLSWYQQKPGQPPKRLIYRASTLASGVPARFKGSGSGTAFTLTISDLECADGATYYCQSFYYTDVIDYNAFGGGTEVVVTGDPVAPTVLIFPPAADQVATGTVTIVCVANKYFPDVTVTWEVDGTTQTTGIENSKTPQNSADCTYNLSSTLTLTSTQYNSHKEYTCKVTQGTTSVVQSFNRGDC

ELISA plate reading (Antigen 2 [15]): 2.12
ELISA plate reading (Antigen 2 [16]): 0.33
ELISA plate reading (Antigen 1 [17]): 0.06
ELISA plate reading (Antigen 1 [18]): 0.07
ELISA plate reading (Antigen 1 [19]): 0.12
ELISA plate reading (Antigen 1 [20]): 0.15
ELISA plate reading (Antigen 2 [21]): 1.47
ELISA plate reading (Antigen 1 [22]): 0.16
ELISA plate reading (Antigen 2 [23]): 2.14
ELISA plate reading (Antigen 1 [24]): 0.08
ELISA plate reading (Antigen 1 [25]): 0.01
ELISA plate reading (Antigen 2 [26]): 2.1
ELISA plate reading (Antigen 2 [27]): 2.28
ELISA plate reading (Antigen 2 [28]): 0.68
B2: VH2-VH2 / VL2 (antibody)
heavy chain (VH2-CH1, PQ linker, VH2-CH1, hinge, CH2, CH3): QSLEESGGRLVSPGTPLTLTCTASGFSLSSNAMGWVRQAPGEGLEYIGIIRPGGSTYYASWAKGRFTISKTSSTTVDLKMTSLTTEDTATYFCARAWDIWGPGTLVTVSLGQPKAPSVFPLAPCCGDTPSSTVTLGCLVKGYLPEPVTVTWNSGTLTNGVRTFPSVRQSSGLYSLSSVVSVTSSSQPVTCNVAHPATNTKVDKTVAPSTCSKPTCPPPELLGGRPQPQPQPQPQPQPQPQPQPQPQPQPQPQPQPQSRQSLEESGGRLVSPGTPLTLTCTASGFSLSSNAMGWVRQAPGEGLEYIGIIRPGGSTYYASWAKGRFTISKTSSTTVDLKMTSLTTEDTATYFCARAWDIWGPGTLVTVSLGQPKAPSVFPLAPCCGDTPSSTVTLGCLVKGYLPEPVTVTWNSGTLTNGVRTFPSVRQSSGLYSLSSVVSVTSSSQPVTCNVAHPATNTKVDKTVAPSTCSKPTCPPPELLGGPSVFIFPPKPKDTLMISRTPEVTCVVVDVSQDDPEVQFTWYINNEQVRTARPPLREQQFNSTIRVVSTLPIAHQDWLRGKEFKCKVHNKALPAPIEKTISKARGQPLEPKVYTMGPPREELSSRSVSLACMINGFYPSDISVEWEKNGKAEDNYKTTPAVLDSDGSYFLYSKLSVPTSEWQRGDVFTCSVMHEALHNHYTQKSISRSPGK
light chain: AFELTQTPSSVEAAVGGTVTIRCQASQSISNQLSWYQQKPGQPPKRLIYRASTLASGVPARFKGSGSGTAFTLTISDLECADGATYYCQSFYYTDVIDYNAFGGGTEVVVTGDPVAPTVLIFPPAADQVATGTVTIVCVANKYFPDVTVTWEVDGTTQTTGIENSKTPQNSADCTYNLSSTLTLTSTQYNSHKEYTCKVTQGTTSVVQSFNRGDC

ELISA plate reading (Antigen 1 [29]): 0.08
ELISA plate reading (Antigen 2 [30]): 0.39
ELISA plate reading (Antigen 2 [31]): 2.38
ELISA plate reading (Antigen 1 [32]): 0.12
ELISA plate reading (Antigen 1 [33]): 0.08
ELISA plate reading (Antigen 1 [34]): 0.09
ELISA plate reading (Antigen 1 [35]): 0.1
ELISA plate reading (Antigen 1 [36]): 0.08
ELISA plate reading (Antigen 2 [37]): 2.19
ELISA plate reading (Antigen 2 [38]): 2.24
ELISA plate reading (Antigen 1 [39]): 0.08
ELISA plate reading (Antigen 2 [40]): 0.94
ELISA plate reading (Antigen 2 [41]): 2.27
ELISA plate reading (Antigen 2 [42]): 1.68
B3: Original Heavy Chain (VH2) and Light Chain (VL2) that recognizes Antigen 2 (antibody, V domains shown)
VH: QSLEESGGRLVSPGTPLTLTCTASGFSLSSNAMGWVRQAPGEGLEYIGIIRPGGSTYYASWAKGRFTISKTSSTTVDLKMTSLTTEDTATYFCARAWDIWGPG
VL: AFELTQTPSSVEAAVGGTVTIRCQASQSISNQLSWYQQKPGQPPKRLIYRASTLASGVPARFKGSGSGTAFTLTISDLECADGATYYCQSFYYTDVIDYNAFGGGTEVVVTG

— patent US20200157190A1
